Data on 1 substance can be found in paper doi:10.1101/2020.04.13.035477.

What all share (assay): SPR
On the technique in general: Surface plasmon resonance follows binding to a sensor surface in real time, without labels.

Test [1] addresses HpARI_CCP2/3 (truncation of HpARI lacking CCP1) (Heligmosomoides polygyrus).
Test [2] has as its target HpARI_CCP1/2 (truncation of HpARI lacking CCP3) (Heligmosomoides polygyrus).
Test [3] concerns the target H. polygyrus Alarmin Release Inhibitor (HpARI), full-length (Heligmosomoides polygyrus).

Sequence of HpARI_CCP1/2 (truncation of HpARI lacking CCP3) (Heligmosomoides polygyrus) (A0A3P7XL18 65-211): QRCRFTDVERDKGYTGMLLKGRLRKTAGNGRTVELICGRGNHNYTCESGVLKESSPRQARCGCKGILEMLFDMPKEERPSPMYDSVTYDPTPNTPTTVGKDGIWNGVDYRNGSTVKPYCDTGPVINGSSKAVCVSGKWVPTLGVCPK
Sequence of HpARI_CCP2/3 (truncation of HpARI lacking CCP1) (Heligmosomoides polygyrus) (A0A3P7XL18 126-297): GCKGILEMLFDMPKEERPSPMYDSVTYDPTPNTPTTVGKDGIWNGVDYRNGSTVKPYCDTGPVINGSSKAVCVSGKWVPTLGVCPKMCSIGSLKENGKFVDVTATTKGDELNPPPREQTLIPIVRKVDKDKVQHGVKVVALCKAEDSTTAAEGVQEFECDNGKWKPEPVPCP

Regarding “recombinant murine IL-33 (from UniProt Q8BVZ5 1-266) (ligand)”, the Kd stood at 1.4 nM in test [1], 9.8 nM in test [2] and 1.1 nM in test [3]. For the same substance, the koff is 0.003 s⁻¹ in test [2] and 0.00015 s⁻¹ in test [3].

Broadly, the Kd is the free concentration of one partner at which half of the binding sites on the other are occupied at equilibrium, for simple one-to-one binding. The low end stands for a tighter complex, the high end for a looser complex. The term koff denotes the rate constant with which the complex falls apart.
